These results are taken from patent publication US20230322943A1 (SUNSHINE GUOJIAN PHARMACEUTICAL SHANGHAI, published 2023).

In assay [1] the target is T1, human full-length CD38 on cells (human, UniProt P28907 1-300). In words: cell-based or functional assay.
In assay [2] the target is T1, human full-length CD38 on cells. In words: flow cytometry on Daudi cells (MFI), FITC goat anti-human Fc secondary antibody. For orientation: In flow cytometry, cells or beads pass a laser one at a time.
Description: After Daudi cells were counted, PBS solution containing 1% BSA was used to inoculate the cells into 96-well round-bottom culture plates with 2×10⁵ cells per well. 50 µl anti-CD38 antibody in gradient dilution with PBS solution was added to the 96-well plate. The plate was incubated at room temperature for 1 h, then it was centrifuged to discard the supernatant. Then the cells was washed with PBS twice. FITC-labeled goat anti-human (Fc-Speicific) antibody was added (1:1000 diluted with PBS containing 1% BSA) and the plate was incubated at room temperature for half an hour. The cells was centrifuged and washed, then the Mean Fluorescence Intensity (MFI) of the FITC channel was detected by flow cytometry. The flow cytometer software was used to process the experimental data and the mean fluorescence intensity was calculated. The GraphPad Prism6 was used for data analysis and mapping, and EC50 was calculated.
The next assay concerns the target T2, human CD38-Fc protein (human, UniProt P28907 43-300).
T2 construct: extracellular domain; Recombinant Fc-tagged extracellular segment of human CD38; not shown: Fc tag
Put plainly: indirect ELISA, CD38-Fc coated at 1 ug/ml, HRP goat anti-mouse IgG.

Assay [3] deals with T1, human full-length CD38 on cells. Put plainly: flow cytometry on DND-41 tumor cells, PE secondary antibody.
Excerpt: (§1) Flow cytometry was used to detect the binding activity of murine antibodies to recombinant high-expression cell line CHOS-CD38 cells and tumor cell line DND-41 cells. The specific methods were as follows:
(§2) CHOS-CD38 and DND-41 cells were collected, centrifuged to remove the cell culture medium, and the cells were washed twice with PBS buffer. The cells were counted and diluted with 1%BSA FACS buffer to 2^{∗}10⁶ cells/ml. The cells were spread into round-bottom 96-well plate for use. The antibody to be tested was diluted with 1%BSA buffer for 8 gradients and added to the round-bottom plate with the above cells. The plate was incubated at 4° C. for 1 hour. After centrifugation, the supernatant was removed and the plate was washed 3 times with 1% BSA FACS buffer. 100 µl donkey anti-mouse PE fluorescent secondary antibody or goat anti-human PE fluorescent secondary antibody was added to each well at a ratio of 1:300 (see the instructions for fluorescent secondary antibody for details), and the plate was incubated at 4° C. for 1 hour. The samples were washed for 3 times with 1% BSA FACS buffer and then re-suspended with 1% BSA FACS buffer at 200 µl/well. FACScalibur BD was used to analyze the samples.
Assay [4] has the same target. In words: flow cytometry on CHOS-CD38 cells, PE secondary antibody.
Excerpt: as §1, §2

Description for human CD38-Fc protein: The binding ability of murine antibody to human CD38-Fc protein was determined by indirect enzyme-linked immunosorbent assay (ELISA).
CD38-Fc protein was diluted in coating solution (50 mM carbonate coating buffer, pH 9.6) to 1 µg/ml to coat plate at 4° C. overnight. Then the plate was blocked with 5% skim milk and incubated at 37° C. for 2 hours. […] The plate was washed with PBST for 3 times, and the HRP-labeled goat anti-mouse IgG was added and placed at 37° C. for 30 min. After washing the plate with PBST for 3 times, the plate was patted on the absorbent paper to remove residual droplets as far as possible. 100 µl TMB was added to each well, and then the plate was placed at room temperature (20±5° C.) away from light for 5 min. Then 50 µl 2 M H₂SO₄ terminating solution was added to each well to terminate the substrate reaction. OD values were read at 450 nm on the microplate reader to analyze the binding ability of the tested antibody to the target antigen human CD38-Fc.

B1: 50G12-Humanized (antibody, human IgG1, kappa, V domains shown)
VH: QVQLVQSGAEVKKPGASVKVSCKASGYTFNTYWMQWVRQAPGQGLEWMGAIYPGDGDITYNQKFKGRVTLTADKSTSTVYMELSSLRSEDTAVYYCAREGYYYGGALDYWGQGTLVTVSS
VL: DIQMTQSPSSLSASVGDRVTITCTASSSVSSSYLHWYQQKPGKAPKLWMYGTSNLASGVPSRFSGSGSGTDYTLTISSLQPEDFATYYCHRYHRSPWTFGQGTKVEIKR
notes: Human IgG1 / Kappa; also called humanized antibody 50G12-Humanized; 50G12-Hu-HC / 50G12-Hu-LC
The EC50 is the midpoint of the concentration-response curve. Read a high EC50 as lower potency in that assay. As to B1, in assay [1], the “ADCC EC50 (Daudi target cells, human PBMC effectors, LDH release)” value was 0.106 nM and the “apoptosis induction EC50 (Daudi cells, Annexin V-FITC)” value worked out at 0.568 nM. The molecule also had an EC50 in assay [2] of 0.605 nM.

B2: murine antibody 50G12 (antibody, V domains shown)
VH: QVQLQQSGAELARPGASVKLSCKASGYTFNTYWMQWVKQRPGQGLEWIGAIYPGDGDITYNQKFKGKATLTADKSSNTAYMHLSSLASEDSAVYYCAREGYYYGGALDYWGQGTSVTVSS
VL: QIFLTQSPAIMSASLGERVTMTCTASSSVSSSYLHWYQQKPGSPPKLWMYGTSNLASGVPPRFSGSGSGTSYSLTISSMEAEDAATYYCHRYHRSPWTFGGGTKLEIK
notes: Mouse monoclonal antibody purified from hybridoma supernatant by Protein G; also called 50Ga12; 50G12 murine antibody
With B2, the EC50 was found to be 0.173 nM with human CD38-Fc protein, 0.134 µg/mL in assay [3] and 0.687 µg/mL in assay [4].

B3: 50G12-Chimeric (antibody, human IgG1, V domains shown)
VH: QVQLQQSGAELARPGASVKLSCKASGYTFNTYWMQWVKQRPGQGLEWIGAIYPGDGDITYNQKFKGKATLTADKSSNTAYMHLSSLASEDSAVYYCAREGYYYGGALDYWGQGTSVTVSS
VL: QIFLTQSPAIMSASLGERVTMTCTASSSVSSSYLHWYQQKPGSPPKLWMYGTSNLASGVPPRFSGSGSGTSYSLTISSMEAEDAATYYCHRYHRSPWTFGGGTKLEIK
notes: Murine 50G12 VH joined to the human IgG1 heavy chain constant region and murine 50G12 VL joined to the human Kappa chain constant region; also called 50G12-Chimeic; 50G12-Chi-HC / 50G12-Chi-LC
For the molecule B3, the EC50 in assay [2] turned out to be 0.528 nM.
